Laboratory results: paper PMC5895748

Target: human Toll-like receptor 5 (hTLR5) (human) (UniProt O60602)
UniProt O60602, sequence (O60602 21-858): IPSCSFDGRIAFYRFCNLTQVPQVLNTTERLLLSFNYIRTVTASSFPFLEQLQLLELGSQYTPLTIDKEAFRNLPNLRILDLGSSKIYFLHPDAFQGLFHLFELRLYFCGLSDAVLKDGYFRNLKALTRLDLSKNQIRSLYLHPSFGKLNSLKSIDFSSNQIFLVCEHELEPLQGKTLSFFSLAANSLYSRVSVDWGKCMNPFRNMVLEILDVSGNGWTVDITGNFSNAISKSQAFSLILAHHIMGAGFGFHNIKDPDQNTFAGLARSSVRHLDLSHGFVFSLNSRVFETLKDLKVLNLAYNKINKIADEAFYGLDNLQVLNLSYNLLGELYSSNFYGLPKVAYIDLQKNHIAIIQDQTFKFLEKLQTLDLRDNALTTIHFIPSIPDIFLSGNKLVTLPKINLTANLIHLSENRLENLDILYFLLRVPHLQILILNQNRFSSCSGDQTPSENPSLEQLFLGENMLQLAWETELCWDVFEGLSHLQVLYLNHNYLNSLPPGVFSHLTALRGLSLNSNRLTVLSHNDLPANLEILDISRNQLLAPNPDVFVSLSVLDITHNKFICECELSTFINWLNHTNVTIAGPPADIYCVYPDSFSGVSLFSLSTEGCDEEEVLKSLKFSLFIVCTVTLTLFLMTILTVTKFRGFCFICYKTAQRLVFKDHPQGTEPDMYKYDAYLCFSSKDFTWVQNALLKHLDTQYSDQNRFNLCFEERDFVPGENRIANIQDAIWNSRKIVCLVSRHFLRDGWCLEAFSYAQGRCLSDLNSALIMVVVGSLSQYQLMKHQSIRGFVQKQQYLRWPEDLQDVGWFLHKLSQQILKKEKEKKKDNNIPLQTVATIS

Row | Substance | EC50 of TLR5 stimulation, HEK293blue-hTLR5 reporter cells (NF-kB-inducible SEAP) [pM] | EC50 of TLR5 stimulation, HEK293blue-hTLR5 reporter cells (SEAP); protein incubated at 37 °C for 24 hours before the assay [pM]
1 | Bacillus cereus flagellin BC1658 (BcFlg) (natural protein) | 1.7 | 1.9
2 | BcFlg^nF, T4 lysozyme fused to the N-terminal end of BcFlg | 44.2 | –
3 | BcFlg^mF, T4 lysozyme inserted into BcFlg residues 178-180 | 1.4 | 2.4
4 | Bacillus cereus flagellin BC1659 (natural protein) | 55.4 | –
5 | BcFlg^cF, T4 lysozyme fused to the C-terminal end of BcFlg | 2.3 | 129
